{"source": "paper doi:10.1101/2024.12.31.630897", "key": {"[1]": {"target": "GFP polybody (His-tagged GFP nanobody-TMS reconstituted in peptidisc)", "test": "BLI"}, "[2]": {"target": "His-tagged GFP nanobody", "test": "BLI"}}}
{"substance": "His-tagged GFP (green fluorescent protein) (from UniProt P42212 1-238) (natural protein)", "values": [{"measurement": "Kd", "setting": "[1]", "value": 2.72, "unit": "nM"}, {"measurement": "Kd", "setting": "[2]", "value": 0.75, "unit": "nM"}]}
